According to paper PMC314469, “Protein Interaction Networks by Proteome Peptide Scanning” (PLoS Biology, 2004):

T1: Abp1 SH3 (ABP1_YEAST), P15891
T1 chain: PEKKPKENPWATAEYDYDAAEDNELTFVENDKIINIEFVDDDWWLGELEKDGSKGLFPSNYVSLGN


Molecular target: T1, Abp1 SH3 (ABP1_YEAST), P15891
Test: SPOT array

| normalised SPOT signal, Boehringer light units (BLU); mean over the file's lines of this peptide | Binder |
| --- | --- |
| 125 | KHSTDEKPNFTKP [YLR087C 2329-2341] |
| 360 | KSRLIVNPFIPRRP [YDR409W 855-868] |
| 0 | KKISFNPVVTPIRP [YFR023W 33-46] |
| 33.4 | KRSLEENPVNKRP [YAL011W 331-343] |
| 121 | KHAAKIDLVEPVKP [YBR261C 84-97] |
| 200 | KLGPISTSKSPKKP [YJL051W 233-246] |
| 541 | KMQRYFRPIIVRP [YLR290C 188-200] |
| 245 | KLKITRNPNPSKP [YHR208W 27-39] |
| 205 | KSELPKSPYRQKP [YHR184W 123-135] |
| 166 | KIQELYLPHMSRP [YMR131C 92-104] |
| 200 | KSNLLSVPEAYKP [YIL030C 763-775] |
| 65 | KKKSSPATKVPSKP [YGL207W 456-469] |
| 34.9 | KKQTQLSSTAPKKP [YGR056W 686-699] |
| 133000 | KPTPPPKPSHLKP [YNL020C 608-620] |
| 87.3 | KPFNPTLPEGIRP [YJL050W 736-748] |
| 98.4 | KSILHGLADEPRRP [YPR084W 202-215] |
| 89 | KNSDMMIPLDVKP [YOL081W 3046-3058] |
| 161 | KSLEDYRPPDEKP [YGR197C 50-62] |
| 22 | KRAKEYIANLPMRP [YGR040W 256-269] |
| 69.8 | KSGSSQPPSFIKP [YIR007W 614-626] |

| normalised SPOT signal, Boehringer light units (BLU); mean over the file's lines of this peptide | Binder |
| --- | --- |
| 194 | KKHNSWVPKWLKP [YFL034W 914-926] |
| 1480 | KMIMKLIPKDVKP [YJL131C 312-324] |
| 134 | KRESLNQPSTTKP [YHR084W 174-186] |
| 217 | KSYRKAFPNMVKP [YML002W 638-650] |
| 169 | KRLLMKGYIPPYKP [YKL126W 608-621] |
| 257 | KILDLKFPPKERP [YKL211C 326-338] |
| 110 | KRKRSKGEVNPSKP [YPR137W 9-22] |
| 15.7 | KNYDVIVPNVWRP [YML115C 378-390] |
| 128 | KKPKLNKRVLPSKP [YLR183C 347-360] |
| 109 | KKEYSETFYHPYKP [YPL008W 3-16] |
| 97.5 | KIEGSIPENEPSKP [YHR102W 306-319] |
| 13.3 | KHKQHKPKVKPSKP [YHL007C 233-246] |
| 71.4 | KRYDYKKPTVNRP [YPL074W 344-356] |
| 153 | KKLSSSMPNSPKKP [YDL117W 113-126] |
| 396 | KLHFSSFPNDIRP [YER097W 23-35] |
| 95.9 | KKLLLKGYIPPYKP [YMR104C 605-618] |
| 80 | KKIEAKKATRPSKP [YNL173C 323-336] |
| 98.7 | KQKNIYVISTPKRP [YLR398C 492-505] |
| 1140 | KPLININPYTRKP [YLR357W 223-235] |
| 120 | KKIKKKSPTGMKP [YOL075C 641-653] |

| normalised SPOT signal, Boehringer light units (BLU); mean over the file's lines of this peptide | Binder |
| --- | --- |
| 45.8 | KPVAPTSTDAPAKP [YOL027C 66-79] |
| 97.5 | KQQQEQQNKAPEKP [YGL105W 191-204] |
| 6230 | KMISNRRPVPRRP [YPR091C 656-668] |
| 96.4 | KPEYFPFPIYDKP [YBR086C 485-497] |
| 55.9 | KSRHFTYPEGVKP [YHR006W 264-276] |
| 108 | KLQGSFNPEYIKP [YML072C 1243-1255] |
| 19.8 | KSDVPEDPIYSKP [YBR003W 113-125] |
| 184 | KKSRSTGFKNPLRP [YML061C 150-163] |
| 107 | KLDIISDPESERP [YGL004C 356-368] |
| 154 | KPGWVVYPPPPKP [YML035C 221-233] |
| 40.5 | KIGLIQFQISPPKP [YDL143W 233-246] |
| 122 | KRRTSLFPWLHKP [YDR389W 506-518] |
| 75.6 | KSDKEISPKSQRP [YER025W 165-177] |
| 107 | KSPSNIKLSIPARP [YJL095W 316-329] |
| 84.4 | KSQTIILPIYGRP [YGL207W 558-570] |
| 0.4 | KLYYVLYSSLPSKP [YGR216C 582-595] |
| 131 | KLKELQTITVPGKP [YER124C 120-133] |
| 174 | KKPASKAPAEKKP [YBL002W 7-19] |
| 202 | KNDGSSSFVKPRRP [YNL215W 286-299] |
